# Reference: article doi:10.1101/2024.07.11.602936 (bioRxiv, 2024)
# B1: glutamine synthetase (GS) (enzyme)
# chain: MATSASSHLNKGIKQMYMNLPQGEKIQLMYIWVDGTGEGLRCKTRTLDCDPKCVEELPEWNFDGSSTFQSEGSNSDMYLHPVAMFRDPFRRDPNKLVFCEVFKYNRKPAETNLRHSCKRIMDMVSSQHPWFGMEQEYTLMGTDGHPFGWPSNGFPGPQGPYYCGVGADKAYGRDIVEAHYRACLYAGIKITGTNAEVMPAQWEFQIGPCEGIRMGDHLWVARFILHRVCEDFGVIATFDPKPIPGNWNGAGCHTNFSTKAMREENGLRCIEEAIDKLSKRHQYHIRAYDPKGGLDNARRLTGFHETSNINDFSAGVANRSASIRIPRIVGQEKKGYFEDRRPSANCDPYAVTEAIVRTCLLNETGDEPFQYKN
# Target: the molecule itself
# Assay: cryo-EM structure
protein,measurement,value
B1,stoichiometry N,10
